The data set is described as follows: yeast display, Sf9 membrane polyspecificity reagent, FACS + sequencing; frameworks hold sequencing errors. In outline:
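After 36–48 hours of galactose induction, yeast (Saccharomyces cerevisiae BJ5465) displaying a synthetic nanobody library were stained at 4 °C for 1 hour with 10% biotinylated, detergent-solubilized Sf9 membrane reagent. Streptavidin microbeads enriched the stained cells before FACS sorting into low and high (top ~1%) gates on anti-HA and streptavidin fluorescence. Each clone's polyreactivity label reflects its gate of origin.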
On to “QVQLVESGGGLVQAGGSLRLTCAASGSIFLDYAMGWYRQAPAKERELVAGITISGGSTYYADSVKGRFTISRDNAKNTVYLQMNSLKPEDTAVYYCAKVAPRSSSSQEYYYWGQGTQVTVSS”, for which the “polyreactivity (PSR sort gate)” value is on record as “low polyreactivity”.
In the case of “QVQLVESGGGLVQAGGSLRLSCAASGIIFRYYTMGWYRQAPGKEREFVAAITGSSGSTYADSVKGRFTISRDNAKNTVYLQMNSLKPEDTAVYYCNADSYSIWVYGEYDYWGQGTQVTVSS”, the “polyreactivity (PSR sort gate)” value is given as “high polyreactivity”.
Take “QVQLVESGGGLVQAGGSLRLSCAASGRNFYLYAMGWYRPAPGKERELVAAITRRGGSTYYADSVKGRFTISRDNAKNTVYLQMNSLKPEDTAVYYCAADRPGTGYSDYDYWGQGTQVTVSS”: the “polyreactivity (PSR sort gate)” value is listed as “high polyreactivity”.
With “QVQLVESCGGLVQAGGSLRLSCSSSGRIFRGNAMGWYRQAPGKERELVAAILTGVTTYYADSVKGRFTISRDNAKNTVYLQTNSLKPEDTAVYYCAAERPSRRSGYEYWGQGTQVTVSS”, the “polyreactivity (PSR sort gate)” value was “low polyreactivity”.
“QVQLVESGGGLVQAGGSLRLSCAASGFTFNSYAMGWYRQAPGKEREFVAAISRSGSNTNYADSVKGRFTISRDNAKNTVYLEMNSLKPEDTAVYYCAARVSSVTRSGFGYWGEGTQVTVSS”: the “polyreactivity (PSR sort gate)” value is on record as “high polyreactivity”.
Take “QVQLVESGGGLVQAGGSLRLSCAASGSTIDGYAKGWYTQAPGKEREFVAAISFSSASTYYADSVKGRFTISSDNAKNTFYLQMNSLIPEDTAVYDCAASYKGLWHGDYDYWGQGTQVTVSS”: the “polyreactivity (PSR sort gate)” value is reported as “low polyreactivity”.
In the case of “QVQLVESGGGLVQAGGSLRLSCAASGRTFGLYAMGWYRQAPGKERELVAAISYSGGRTYYADSVKGRFTISRDNAKKTVYLQRNSLKPEDTAVYYCNKAWFPYYYYRFDYWGQGTQVTVSS”, the “polyreactivity (PSR sort gate)” value is reported as “high polyreactivity”.
Turning to “QVQLVESGGGLVQAGGSLRLICAAAGFIFKRYAMGWYRQAPGKERELVAAITSNGGRTYYADSVKGRFTISRDNAKNTVYFQMNSLKPEDTEVYYCARVSQYYEQDDYWGQGTQVTVSS”, the “polyreactivity (PSR sort gate)” value is on record as “high polyreactivity”.
For “QVQLVESGGGLVQAGGSLRLSCAASGSTFLRYTMGWYRQAPGKARELVAAITRSGGSTYYADSVKGRFTISRDTAKNTVYLQMNSLKPEDTAVYYCAKRYRVAYGYWGQGTQVTVSS”, the “polyreactivity (PSR sort gate)” value is “high polyreactivity”.
As to “QVQLVESGGGLVQAGGSLRLSCAASGLTLTHYAMGWYRQAPGKERELVATISRSGGRTYYADSVKGRFTISRDNAKNTVYLQMNSLKPEDTAVYYCNAEYYYGRGWYDYWGQGTQVTVSS”, the “polyreactivity (PSR sort gate)” value was “high polyreactivity”.
On to “QVQLVESGGGLVQAGGSLRLTCAASGRTFIVYAMGWYRQAPGKERELVARISSGSRTSYADSVTGRFTISRDNAKNTVYLQMNSLKPEDTAVYYFAKSRVIKYEFDYWGQGTQVTLSS”, for which the “polyreactivity (PSR sort gate)” value is given as “low polyreactivity”.
Next, “HVQLVESGGGLVQAGGSLRLSCAASGSIFAKNAMGWYREAPGKERELVAGIDFSGGSTYYADSVKGRFTISRDNAKNTVYLQMNSLKPEDTAVYYCAADWAYKYELDYWGQGTQVTVSS”: “low polyreactivity”; “QVQLVESRGGLVQAGGSLRLSCAASGYIFGDYAKGWYRQAPGKERELVAAITQTGGNTYYADSVKGRFTISRDNAKKTVYLQMNSLKPEDTAVYYCAAPALGNYFYGYDYWGQGTQVTVSS”: “low polyreactivity”.
Next, “QVQLVESGGGLVQAGGSLRLSCAASGFIFYRNAMGWYRQAPGKERELVAAISQRGGRTYADSVKGRFTISRDNAKNTVYLQMNSLIPEDTAVYYCAADYLDSTYGYVYGWDDYWGQGTQVTVSS”: “low polyreactivity”; “QVQLVDSGGGLVQAGGSLRLTCAASGSTFDTNSVGWYRQAPGKERELVAAITSGGNTYADSVKGRFTISRDNAKNTVYFQMNSLKAEDTAVYYCAAEDVFTCWYDYWGQGTQVNVSS”: “low polyreactivity”.
In the case of “QVQLVETGGGLVQAGGSLRLSCAASGPTFSRNAKGWYRQAPGKERELVATISRGGGITFYADSVKGRFTISRDNAKNTVYLQMNSLKPEDTAVYYCNADVRYVGLRRIVDYWGQGTQVTVSS” it was “high polyreactivity”.

The record behind these values is the nanobody polyreactivity screen of Harvey et al. (2022).
